Assay results from PMC7367873, “Dissecting the sequence determinants for dephosphorylation by the catalytic subunits of phosphatases PP1 and PP2A” (Nature Communications, 2020).

Assays:
GFP-14-3-3β = GFP-14-3-3β co-IP with LC-MS/MS, untreated GFP-14-3-3β versus GFP control (14-3-3 interactome); assay type: binding, human; conditions: GFP-14-3-3β co-IP LC-MS/MS; untreated vs GFP; student's t-test; label-free quantification, 3 replicates each
[1] = test system: GFP-14-3-3β and its binding proteins; assay: GFP-14-3-3β co-IP with LC-MS/MS label-free quantification, untreated versus PP1c-treated; set-up: species or system human; conditions: GFP-14-3-3β co-IP LC-MS/MS; PP1 vs untreated; student's t-test; label-free quantification, 3 replicates each

Difference (log2), PP1 vs untreated [1] [log2]	Molecule	Difference (log2), untreated vs GFP (GFP-14-3-3β) [log2]
-0.5793	MAP4 (protein, UniProt P27816 2-1152, looked up) Microtubule-associated …: ADLSLADALTEPSPDIEGEIKRDFIATLEAEAFDDVVGETVGKTDYIPLLDVDEKTGNSESKKKPCSETSQIEDTPSSKPTLLANGGHGVEGSDTTGSPTEFLEEKMAYQEYPNSQNWPEDTNFCFQPEQVVDPIQTDPFKMYHDDDLADLVFPSSATADTSIFAGQNDPLKDSYGMSPCNTAVVPQGWSVEALNSPHSESFVSPEAVAEPPQPTAVPLELAKEIEMASEERPPAQALEIMMGLKTTDMAPSKETEMALAKDMALATKTEVALAKDMESPTKLDVTLAKDMQPSMESDMALVKDMELPTEKEVALVKDVRWPTETDVSSAKNVVLPTETEVAPAKDVTLLKETERASPIKMDLAPSKDMGPPKENKKETERASPIKMDLAPSKDMGPPKENKIVPAKDLVLLSEIEVAQANDIISSTEISSAEKVALSSETEVALARDMTLPPETNVILTKDKALPLEAEVAPVKDMAQLPETEIAPAKDVAPSTVKEVGLLKDMSPLSETEMALGKDVTPPPETEVVLIKNVCLPPEMEVALTEDQVPALKTEAPLAKDGVLTLANNVTPAKDVPPLSETEATPVPIKDMEIAQTQKGISEDSHLESLQDVGQSAAPTFMISPETVTGTGKKCSLPAEEDSVLEKLGERKPCNSQPSELSSETSGIARPEEGRPVVSGTGNDITTPPNKELPPSPEKKTKPLATTQPAKTSTSKAKTQPTSLPKQPAPTTIGGLNKKPMSLASGLVPAAPPKRPAVASARPSILPSKDVKPKPIADAKAPEKRASPSKPASAPASRSGSKSTQTVAKTTTAAAVASTGPSSRSPSTLLPKKPTAIKTEGKPAEVKKMTAKSVPADLSRPKSTSTSSMKKTTTLSGTAPAAGVVPSRVKATPMPSRPSTTPFIDKKPTSAKPSSTTPRLSRLATNTSAPDLKNVRSKVGSTENIKHQPGGGRAKVEKKTEAAATTRKPESNAVTKTAGPIASAQKQPAGKVQIVSKKVSYSHIQSKCGSKDNIKHVPGGGNVQIQNKKVDISKVSSKCGSKANIKHKPGGGDVKIESQKLNFKEKAQAKVGSLDNVGHLPAGGAVKTEGGGSEAPLCPGPPAGEEPAISEAAPEAGAPTSASGLNGHPTLSGGGDQREAQTLDSQIQETSI	0.9373
-0.5886	SPATS2 (protein, UniProt Q86XZ4 1-545, looked up) Spermatogenesis-associated …: MSRKQNQKDSSGFIFDLQSNTVLAQGGAFENMKEKINAVRAIVPNKSNNEIILVLQHFDNCVDKTVQAFMEGSASEVLKEWTVTGKKKNKKKKNKPKPAAEPSNGIPDSSKSVSIQEEQSAPSSEKGGMNGYHVNGAINDTESVDSLSEGLETLSIDARELEDPESAMLDTLDRTGSMLQNGVSDFETKSLTMHSIHNSQQPRNAAKSLSRPTTETQFSNMGMEDVPLATSKKLSSNIEKSVKDLQRCTVSLARYRVVVKEEMDASIKKMKQAFAELESCLMDREVALLAEMDKVKAEAMEILLSRQKKAELLKKMTHVAVQMSEQQLVELRADIKHFVSERKYDEDLGRVARFTCDVETLKKSIDSFGQVSHPKNSYSTRSRCSSVTSVSLSSPSDASAASSSTCASPPSLTSANKKNFAPGETPAAIANSSGQPYQPLREVLPGNRRGGQGYRPQGQKSNDPMNQGRHDSMGRYRNSSWYSSGSRYQSAPSQAPGNTIERGQTHSAGTNGTGVSMEPSPPTPSFKKGLPQRKPRTSQTEAVNS	1.275
-0.6423	BRIX1 (protein, UniProt Q8TDN6 1-353, looked up) Ribosome biogenesis protein …: MAATKRKRRGGFAVQAKKPKRNEIDAEPPAKRHATAEEVEEEERDRIPGPVCKGKWKNKERILIFSSRGINFRTRHLMQDLRMLMPHSKADTKMDRKDKLFVINEVCEMKNCNKCIYFEAKKKQDLYMWLSNSPHGPSAKFLVQNIHTLAELKMTGNCLKGSRPLLSFDPAFDELPHYALLKELLIQIFSTPRYHPKSQPFVDHVFTFTILDNRIWFRNFQIIEEDAALVEIGPRFVLNLIKIFQGSFGGPTLYENPHYQSPNMHRRVIRSITAAKYREKQQVKDVQKLRKKEPKTLLPHDPTADVFVTPAEEKPIEIQWVKPEPKVDLKARKKRIYKRQRKMKQRMDSGKTK	1.65
-0.6713	DCD (protein, UniProt P81605 20-110, looked up) Dermcidin: YDPEAASAPGSGNPCHEASAAQKENAGEDPGLARQAPKPRKQRSSLLEKGLDGAKKAVGGLGKLGKDAVEDLESVGKGAVHDVKDVLDSVL	-1.7359
